US20130196933A1 (BOARD OF TRUSTEES OF THE UNIVERSITY OF ILLINOIS, published 2013)

T1: GFP-FoxM1B 1-688 protein (human, UniProt Q08050 1-703)
T1 construct: not shown: green fluorescent protein (EGFP) of the pEGFP-C2 expression plasmid (Clontech), N-terminal fusion partner
T1 sequence: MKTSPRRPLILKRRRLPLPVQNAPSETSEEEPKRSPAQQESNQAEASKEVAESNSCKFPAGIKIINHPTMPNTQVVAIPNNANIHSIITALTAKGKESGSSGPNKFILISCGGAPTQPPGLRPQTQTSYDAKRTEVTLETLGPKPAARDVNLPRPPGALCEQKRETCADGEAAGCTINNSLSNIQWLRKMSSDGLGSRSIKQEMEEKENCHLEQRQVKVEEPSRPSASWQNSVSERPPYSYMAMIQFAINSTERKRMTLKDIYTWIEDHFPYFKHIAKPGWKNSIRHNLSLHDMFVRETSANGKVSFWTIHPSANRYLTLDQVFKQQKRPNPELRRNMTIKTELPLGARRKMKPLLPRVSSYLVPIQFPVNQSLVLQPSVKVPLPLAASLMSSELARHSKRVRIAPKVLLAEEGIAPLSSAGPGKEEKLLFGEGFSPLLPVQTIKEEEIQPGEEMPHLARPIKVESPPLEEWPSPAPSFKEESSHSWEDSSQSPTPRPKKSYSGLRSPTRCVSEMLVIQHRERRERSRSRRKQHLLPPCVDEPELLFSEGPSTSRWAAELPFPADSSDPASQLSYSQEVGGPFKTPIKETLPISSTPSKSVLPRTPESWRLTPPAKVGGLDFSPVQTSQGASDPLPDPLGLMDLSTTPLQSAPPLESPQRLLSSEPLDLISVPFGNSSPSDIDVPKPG

T2: GFP-FoxM1B fusion protein, wild type (CMV GFP-FoxM1B; GFP-T7-FoxM1B WT; GFP-FoxM1B 1-748 full-length) (human, UniProt Q08050 1-763)
T2 construct: Expressed in transfected U2OS cells; also called CMV-GFP-T7-FoxM1B; GFP-FoxM1B WT; not shown: green fluorescent protein (EGFP) of the pEGFP-C2 expression plasmid (Clontech), N-terminal fusion partner
T2 sequence: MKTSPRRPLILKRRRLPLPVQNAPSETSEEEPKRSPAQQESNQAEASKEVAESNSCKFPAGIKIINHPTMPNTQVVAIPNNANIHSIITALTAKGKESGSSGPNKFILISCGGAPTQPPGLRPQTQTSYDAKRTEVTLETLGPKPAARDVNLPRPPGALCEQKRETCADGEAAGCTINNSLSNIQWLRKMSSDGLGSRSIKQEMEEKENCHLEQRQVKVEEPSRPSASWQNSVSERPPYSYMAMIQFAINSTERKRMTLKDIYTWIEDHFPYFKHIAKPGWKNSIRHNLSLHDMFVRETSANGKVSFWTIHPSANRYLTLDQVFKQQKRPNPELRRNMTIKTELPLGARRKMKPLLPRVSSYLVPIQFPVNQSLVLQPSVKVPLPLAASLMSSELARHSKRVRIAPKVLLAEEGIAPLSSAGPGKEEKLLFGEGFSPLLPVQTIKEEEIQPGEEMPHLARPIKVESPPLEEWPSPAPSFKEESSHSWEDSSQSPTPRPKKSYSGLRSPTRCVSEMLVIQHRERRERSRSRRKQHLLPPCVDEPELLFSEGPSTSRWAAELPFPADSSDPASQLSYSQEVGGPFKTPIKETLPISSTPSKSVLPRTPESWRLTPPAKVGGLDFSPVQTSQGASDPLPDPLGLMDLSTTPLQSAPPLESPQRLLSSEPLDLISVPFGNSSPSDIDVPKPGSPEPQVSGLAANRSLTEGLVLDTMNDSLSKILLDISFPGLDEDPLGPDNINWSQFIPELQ


Columns and labels:
GFP-FoxM1B 1-688 protein = target: T1, GFP-FoxM1B 1-688 protein; assay: Co-IP from transfected U2OS extracts
[1] = target: T2, GFP-FoxM1B fusion protein, wild type …; assay: Co-IP with HA antibody, Western blot with GFP antibody
Cdk2 protein = Cdk2 protein (human, UniProt P24941 1-298); assay: Co-IP from transfected U2OS extracts with Cdk2 antibody, Western blot with T7 tag antibody
Excerpt: The immunoprecipitated proteins were subjected to Western blot analysis using a monoclonal antibody against the T7 epitope tagged antibody protein.

Binder | binding result [1] | other results
HA-p19^ARF WT protein (other, not shown: small tags and cut ends, residues 26-44 of it are the printed p19ARF 26-44 peptide; Expressed in transfected U2OS cells; also called WT p19; HA tagged p19) MGRRFLVTVRIQRAGRPLQERVFLVKFVRSRRPRTASCALAFVNMLLRLERILRRGPHRNPGPGDDDGQRSRSSSSAQLRCRFELRGPHYLLPPGDRRSAGRLPGHAGGAARVRGSAGCARCLGSPAARLGPRAGTSRHRAIFAFRWVLFVFRWVVFVYRWERRPDRRA | – | binding result (GFP-FoxM1B 1-688 protein): no binding
HA-p19^ARF Δ26-37+Δ1-14 deletion mutant (other, not shown: small tags and cut ends, Deletion of p19 residues 1-14 and 26-37) GRPLQERVFLVCALAFVNMLLRLERILRRGPHRNPGPGDDDGQRSRSSSSAQLRCRFELRGPHYLLPPGDRRSAGRLPGHAGGAARVRGSAGCARCLGSPAARLGPRAGTSRHRAIFAFRWVLFVFRWVVFVYRWERRPDRRA | no binding | –
T7-FoxM1B L641A mutant protein (other, not shown: small tags and cut ends, expressed in transfected U2OS cells; also called CMV T7-FoxM1B L641A; CMV FoxM1B L641A) MKTSPRRPLILKRRRLPLPVQNAPSETSEEEPKRSPAQQESNQAEASKEVAESNSCKFPAGIKIINHPTMPNTQVVAIPNNANIHSIITALTAKGKESGSSGPNKFILISCGGAPTQPPGLRPQTQTSYDAKRTEVTLETLGPKPAARDVNLPRPPGALCEQKRETCADGEAAGCTINNSLSNIQWLRKMSSDGLGSRSIKQEMEEKENCHLEQRQVKVEEPSRPSASWQNSVSERPPYSYMAMIQFAINSTERKRMTLKDIYTWIEDHFPYFKHIAKPGWKNSIRHNLSLHDMFVRETSANGKVSFWTIHPSANRYLTLDQVFKQQKRPNPELRRNMTIKTELPLGARRKMKPLLPRVSSYLVPIQFPVNQSLVLQPSVKVPLPLAASLMSSELARHSKRVRIAPKVLLAEEGIAPLSSAGPGKEEKLLFGEGFSPLLPVQTIKEEEIQPGEEMPHLARPIKVESPPLEEWPSPAPSFKEESSHSWEDSSQSPTPRPKKSYSGLRSPTRCVSEMLVIQHRERRERSRSRRKQHLLPPCVDEPELLFSEGPSTSRWAAELPFPADSSDPASQLSYSQEVGGPFKTPIKETLPISSTPSKSVLPRTPESWRLTPPAKVGGLDFSPVQTSQGASDPLPDPLGAMDLSTTPLQSAPPLESPQRLLSSEPLDLISVPFGNSSPSDIDVPKPGSPEPQVSGLAANRSLTEGLVLDTMNDSLSKILLDISFPGLDEDPLGPDNINWSQFIPELQ | – | binding result (Cdk2 protein): no binding
HA-p19^ARF Δ26-37 deletion mutant (other, not shown: small tags and cut ends, Deletion of p19 residues 26-37; also called CMV p19^ARFΔ26-37) MGRRFLVTVRIQRAGRPLQERVFLVCALAFVNMLLRLERILRRGPHRNPGPGDDDGQRSRSSSSAQLRCRFELRGPHYLLPPGDRRSAGRLPGHAGGAARVRGSAGCARCLGSPAARLGPRAGTSRHRAIFAFRWVLFVFRWVVFVYRWERRPDRRA | no binding | –
